In the test the target is arrestin-3 fused to nanoluciferase (UniProt P32121). Briefly: arrestin-3 interaction assay (hGPR84-eYFP with arrestin-3-nanoluciferase), 2-HTP concentration-response. As to conditions: value read at the highest 2-HTP concentration, Log [2-HTP] M = -4; parent: est. 100; read off a plot.
In the case of “FLAG-human GPR84-eYFP (from UniProt Q9NQS5) pmIL3 (all 21 serine and threonine residues of the third intracellular loop converted to alanine; positions not printed legibly)”, the percent of parent is 28 % of WT.

With “FLAG-human GPR84-eYFP (from UniProt Q9NQS5) pmIL3-Ct (all 21 serines/threonines of the third intracellular loop and the two serines of the C-terminal tail converted to alanine; positions not printed legibly)”, the percent of parent is 28 % of WT.

Take “FLAG-human GPR84-eYFP (from UniProt Q9NQS5) pmCt (the two serine residues of the C-terminal tail converted to alanine; positions not printed legibly)”: the percent of parent was 75 % of WT.
